Test results as given in patent US20090291081A1 (AbbVie / Abbott, published 2009).
Residue numbers refer to the chain shown, from its start. Where “and” joins values, the source holds several entries; their conditions need not be identical. Equal entries are not always repeated. Where two headings read alike, the source gives them in different places. Each block holds one binder with its values, some of them ahead of it.

Legend:
human IL-1β [1] = molecular target: T1, human IL-1β (human, UniProt P01584 117-269); experiment: cell-based or functional assay
human IL-1β [2] = molecular target: T1, human IL-1β; experiment: cell-based or functional assay; remark: listed apart in the source
human IL-1β [3] = molecular target: T1, human IL-1β; experiment: BIAcore kinetic analysis of the dAb
human IL-1β [4] = molecular target: T1, human IL-1β; experiment: BIAcore kinetic analysis of the dAb; remark: listed apart in the source
human IL-1β [5] = molecular target: T1, human IL-1β; experiment: BIAcore kinetic analysis of the dAb; remark: listed apart in the source
human IL-1α [6] = molecular target: T2, human IL-1α (human, UniProt P01583 113-271); experiment: BIAcore, purified dAb
T2 construct: also called hIL-1α; rhIL-1 alpha
T2 sequence (looked up): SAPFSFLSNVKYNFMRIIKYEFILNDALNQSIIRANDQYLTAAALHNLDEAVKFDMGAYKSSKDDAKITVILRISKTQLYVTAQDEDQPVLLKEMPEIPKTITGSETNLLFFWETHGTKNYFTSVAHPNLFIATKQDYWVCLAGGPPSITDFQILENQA

human IL-1α [7] = molecular target: T2, human IL-1α; experiment: cell-based or functional assay
human IL-1α [8] = molecular target: T2, human IL-1α; experiment: method not given
human IL-1α [9] = molecular target: T2, human IL-1α; experiment: BIAcore, IL-1α coated chip, dAb flowed over
human IL-1α [10] = molecular target: T2, human IL-1α; experiment: cell-based or functional assay; remark: listed apart in the source
human IL-1β [11] = molecular target: T1, human IL-1β; experiment: cell-based or functional assay; remark: listed apart in the source
human IL-1α [12] = molecular target: T2, human IL-1α; experiment: cell-based or functional assay; remark: listed apart in the source
human IL-1β [13] = molecular target: T1, human IL-1β; experiment: cell-based or functional assay; remark: listed apart in the source
human IL-1α [14] = molecular target: T2, human IL-1α; experiment: Biacore, IgG captured by goat anti-human IgG Fc
human IL-1β [15] = molecular target: T1, human IL-1β; experiment: Biacore, IgG captured by goat anti-human IgG Fc
human IL-1β [16] = molecular target: T1, human IL-1β; experiment: Biacore, IgG captured by goat anti-human IgG Fc; rhIL-1 beta followed by rhIL-1 alpha
Procedure: (§1) The antibody (1-5 ug/ml) was first captured on a goat anti human IgG FC surface.

human IL-1α [17] = molecular target: T2, human IL-1α; experiment: Biacore, IgG captured by goat anti-human IgG Fc; rhIL-1 alpha 100 nM then rhIL-1 beta 200 nM
Procedure: as §1

human IL-1β [18] = molecular target: T1, human IL-1β; experiment: as above
Procedure: as §1

human IL-1α [19] = molecular target: T2, human IL-1α; experiment: BIAcore, purified dAb; remark: listed apart in the source
human IL-1α [20] = molecular target: T2, human IL-1α; experiment: cell-based or functional assay; remark: listed apart in the source
human IL-1α [21] = molecular target: T2, human IL-1α; experiment: IL-1 Receptor Binding Assay

B2: ABT2-76 (other)
VL: DIQMTQSPSSLSASVGDRVTITCRASQSIDRWLAWYQQKPGKAPKLLIYRGSILQSGVPSRFSGSGSGTDFTLTISSLQPEDFATYYCQQVAFWPPTFGQGTKVEIKR
notes: dAb, Vκ, to IL-1β; also called dAb ABT2-76
- MRC5 ND10 (human IL-1β [2]): 50 nM
- MRC5 ND50 (human IL-1β [2]): 456 nM
- Kd (human IL-1β [4]): 1300 nM
- koff (human IL-1β [4]): 0.027 s⁻¹
- kon (human IL-1β [4]): 20000 M⁻¹ s⁻¹

B5: ABT2-108-620x/ABT1-95-A3 hu IgG1/K mut (234; 235) (bispecific antibody, V domains shown)
VH: EVQLLESGGGLVQPGGSLRLSCAASGFTFAEESWMWVRQAPGKGLEWVSRIGQDGKNTYYREDVKGRFTISRDNSKNTLYLQMNSLRAEDTAVYYCAKYTGRIMGHHLFDYWGQGTLVTVSS
VL: DIQMTQSPSSLSASVGDRVTITCRASKPGVRNMRWYQQKPGKAPKLLIYSVSYLEPGVPSRFSGSGSGTDFTLTISSLQPEDFATYHCLQGYRWPPTFGQGTKVEIKR
notes: hu IgG1/K mut (234)
- IC50 (MRC-5 neutralization assay) (human IL-1α [10]): < 0.001 nM
- MRC-5 IL-1a inhibition assay EC50 (human IL-1α [10]): 0.00446 nM
- IC50 (MRC-5 neutralization assay) (human IL-1β [11]): 0.00558 nM
- IL-1α IC50 (human IL-1α [12]): 0.002 nM
- IL-1β IC50 (human IL-1β [13]): 0.0073 nM
- Kd (human IL-1α [14]): 0.0887 nM and 0.0835 nM
- koff (human IL-1α [14]): 4.25e-05 s⁻¹ and 4.11e-05 s⁻¹
- kon (human IL-1α [14]): 479000 M⁻¹ s⁻¹ and 492000 M⁻¹ s⁻¹
- Kd (human IL-1β [15]): 0.446 nM and 0.361 nM
- koff (human IL-1β [15]): 0.000138 s⁻¹ and 0.000102 s⁻¹
- kon (human IL-1β [15]): 315000 M⁻¹ s⁻¹ and 283000 M⁻¹ s⁻¹
- Kd (human IL-1β [15]; mean): 0.404 nM
- koff (human IL-1β [15]; mean): 0.00012 s⁻¹
- kon (human IL-1β [15]; mean): 299000 M⁻¹ s⁻¹
- stoichiometry (human IL-1β [16]): 0.98
- stoichiometry (human IL-1α [17]): 2
- stoichiometry (human IL-1β [18]): 0.9

B6: ABT1-95-15 (other)
VL: B5 VL with K27Q, G29I, M33L, V51S, L89Q, P96V
notes: dAb, Vκ, to IL-1α
- Kd (human IL-1α [19]): 0.67 nM
- ND50 (human IL-1α [20]): 45 pM

B8: ABT1-95-8 (other)
VL: B5 VL with K27Q, G29I, V30Q, R31G, M33L, V51S, P56R, L89Q, P96V
notes: dAb, Vκ, to IL-1α
- MRC5 ND50 (human IL-1α [7]): 0.9 nM
- IC50 (human IL-1α [21]): 1 nM
- Kd (human IL-1α [8]): 0.9 nM

B9: ABT1-95-14 (other)
VL: B5 VL with K27Q, G29I, R31K, M33L, V51S, P56R, L89Q, P96V
notes: dAb, Vκ, to IL-1α
- Kd (human IL-1α [19]): 1.2 nM
- ND50 (human IL-1α [20]): 250 pM
- MRC5 ND50 (human IL-1α [7]): 0.25 nM

Results, then the binder that gave them:

- MRC5 ND50 (human IL-1β [1]): 266 nM
- MRC5 ND10 (human IL-1β [2]): 100 nM
- MRC5 ND50 (human IL-1β [2]): 266 nM
- Kd (human IL-1β [3]): 97 nM
- koff (human IL-1β [3]): 0.02 s⁻¹
- kon (human IL-1β [3]): 250000 M⁻¹ s⁻¹
B1: ABT2-65 (other)
VH: EVQLLESGGGLVQPGGSLRLSCAASGFTFEDYQMGWVRQAPGKGLEWVSSISAMGNRTYYADSVKGRFTISRDDSKNTLYLQMNSLRAEDTAVYYCAKNLVRTQSKMWMFDYWGQGTLVTVSS
notes: dAb, VH, to IL-1β; also called dAb ABT2-65

- MRC5 ND10 (human IL-1β [2]): 150 nM
- MRC5 ND50 (human IL-1β [2]): 250 nM
- Kd (human IL-1β [5]): 110 nM
- koff (human IL-1β [5]): 0.0031 s⁻¹
- kon (human IL-1β [5]): 29000 M⁻¹ s⁻¹
B3: ABT2-108 (other)
VH: EVQLLESGGGLVQPGGSLRLSCAASGFTFAEYTMMWVRQAPGKGLEWVSRIGQDGKNTYYADSVKGRFTISRDNSKNTLYLQMNSLRAEDTAVYYCAKYTGRVGVHHLFDYWGQGTLVTSS
notes: dAb, VH, to IL-1β

- Kd (human IL-1α [6]): 5.4 nM
- MRC5 ND50 (human IL-1α [7]): 50 nM
- Kd (human IL-1α [8]): 5 to 10 nM
- Kd (human IL-1α [9]): 7 to 12 nM
B4: ABT1-95-3 (other)
VL: B5 VL with K27Q, G29I, V30H, R31G, M33L, V51S, E55Q, P56S, L89Q, P96V
notes: dAb, Vκ, to IL-1α

- Kd (human IL-1α [19]): 0.95 nM
- ND50 (human IL-1α [20]): 120 pM
- MRC5 ND50 (human IL-1α [7]): 0.11 nM
B7: ABT1-95-13 (other)
VL: B5 VL with K27Q, G29I, M33L, V51S, P56R, L89Q, P96V
notes: dAb, Vκ, to IL-1α
